# Numbering of substitutions follows the chain as printed. In names and notes the source's numbering stands.
# B1: human mitochondrial poly(A) polymerase (mtPAP), wild type, residues 44-538 (enzyme, UniProt Q9NVV4 44-538, looked up)
# chain: EQPSGSVETGFEDKIPKRRFSEMQNERREQAQRTVLIHCPEKISENKFLKYLSQFGPINNHFFYESFGLYAVVEFCQKESIGSLQNGTHTPSTAMETAIPFRSRFFNLKLKNQTSERSRVRSSNQLPRSNKQLFELLCYAESIDDQLNTLLKEFQLTEENTKLRYLTCSLIEDMAAAYFPDCIVRPFGSSVNTFGKLGCDLDMFLDLDETRNLSAHKISGNFLMEFQVKNVPSERIATQKILSVLGECLDHFGPGCVGVQKILNARCPLVRFSHQASGFQCDLTTNNRIALTSSELLYIYGALDSRVRALVFSVRCWARAHSLTSSIPGAWITNFSLTMMVIFFLQRRSPPILPTLDSLKTLADAEDKCVIEGNNCTFVRDLSRIKPSQNTETLELLLKEFFEYFGNFAFDKNSINIRQGREQNKPDSSPLYIQNPFETSLNISKNVSQSQLQKFVDLARESAWILQQEDTDRPSISSNRPWGLVSLLLPSAPNR
# notes: human mitochondrial poly(A) polymerase (MTPAP, formerly PAPD1), residues 44-538, in pET28a; also called wild-type mtPAP; WT
# B2: human mitochondrial poly(A) polymerase (mtPAP), p.N478D mutant, residues 44-538 (enzyme, UniProt Q9NVV4 44-538, looked up)
# chain: B1 chain with N435D
# notes: human mitochondrial poly(A) polymerase (MTPAP), residues 44-538, in pET28a, with the patient mutation p.N478D (c.1432A>G) made with the QuikChange kit; The mutation occurs in patients (spastic ataxia with optic atrophy); also called p.N478D mtPAP; mutant mtPAP
# Target: the molecule itself
# Experiment: SEC; gel filtration analysis of wild-type and mutant mtPAP isolated to electrophoretic purity
row,Protein,stoichiometry N
1,B1,2
2,B2,2
